# Data reported in publication PMC10786891, “Massively parallel profiling of RNA-targeting CRISPR-Cas13d”.
# T1: EsCas13d, nuclease-dead (Eubacterium siraeum, UniProt B0MS50, R295A;H300A;R849A;H854A)
# T1 sequence: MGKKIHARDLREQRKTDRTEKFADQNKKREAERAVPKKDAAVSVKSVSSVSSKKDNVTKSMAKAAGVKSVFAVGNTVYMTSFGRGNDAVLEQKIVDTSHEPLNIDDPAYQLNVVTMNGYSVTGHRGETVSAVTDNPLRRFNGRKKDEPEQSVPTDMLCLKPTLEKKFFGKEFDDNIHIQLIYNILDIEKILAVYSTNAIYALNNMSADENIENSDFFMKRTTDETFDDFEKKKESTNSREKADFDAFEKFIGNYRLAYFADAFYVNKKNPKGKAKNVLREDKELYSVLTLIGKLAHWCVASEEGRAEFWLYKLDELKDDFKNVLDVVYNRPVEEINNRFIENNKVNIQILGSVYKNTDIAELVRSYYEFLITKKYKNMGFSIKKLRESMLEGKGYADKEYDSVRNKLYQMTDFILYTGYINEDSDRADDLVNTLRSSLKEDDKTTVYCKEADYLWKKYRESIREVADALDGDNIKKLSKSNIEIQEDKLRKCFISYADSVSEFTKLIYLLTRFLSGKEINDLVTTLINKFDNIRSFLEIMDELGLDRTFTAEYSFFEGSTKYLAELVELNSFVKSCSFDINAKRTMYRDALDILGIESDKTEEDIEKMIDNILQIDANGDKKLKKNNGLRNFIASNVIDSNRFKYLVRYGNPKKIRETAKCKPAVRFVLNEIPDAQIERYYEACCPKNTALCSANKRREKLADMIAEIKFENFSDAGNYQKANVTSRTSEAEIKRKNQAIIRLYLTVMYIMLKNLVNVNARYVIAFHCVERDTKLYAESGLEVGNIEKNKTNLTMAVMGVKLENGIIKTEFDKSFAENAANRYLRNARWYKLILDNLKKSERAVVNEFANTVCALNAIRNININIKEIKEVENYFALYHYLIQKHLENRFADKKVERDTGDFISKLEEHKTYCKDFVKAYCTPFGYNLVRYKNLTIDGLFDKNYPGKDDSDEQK
# Biological target: T1, EsCas13d, nuclease-dead
# Test: crRNA (strand 1, pre-loaded); Mg2+; 40 mM Tris-HCl pH 7.5, 150 mM NaCl, 6 mM MgCl2, 1 mM DTT, 0.1% Tween-20, 0.2 mg/ml BSA; 25 C; 10 min per concentration, then washed
# Conditions: tags: His6-TwinStrep-SUMO cleaved; N-terminal SNAP kept (SNAP-Surface 488); label: 3' end held by stalled T7 RNA polymerase
row,Binder,Kd
1,"target 3 G3U,U22C (mixed) RNA 1: CACCCGUGCAAAAUUGCAGGGGUCUAAAACGACCUGAAUAUUUCAGAUCAAA RNA 2: GGGAAUGGAUCCACAUCUACGAAUUCGUUCUUGAUCUGAAAUAUUCAGUUCUGCAGAUCGGAAGAGCACACGU",28.4 ± 5.25 nM
2,target 3 insA 3' of 3 (mixed) RNA 1: CACCCGUGCAAAAUUGCAGGGGUCUAAAACGACCUGAAUAUUUCAGAUCAAA RNA 2: GGGAAUGGAUCCACAUCUACGAAUUCGUUUUUGAUCUGAAAUAUUCAGGAUCUGCAGAUCGGAAGAGCACACGU,25.1 ± 3.45 nM
3,"target 3 U2G,G14A (mixed) RNA 1: CACCCGUGCAAAAUUGCAGGGGUCUAAAACGACCUGAAUAUUUCAGAUCAAA RNA 2: GGGAAUGGAUCCACAUCUACGAAUUCGUUUUUGAUCUAAAAUAUUCAGGGCUGCAGAUCGGAAGAGCACACGU",106 ± 42 nM
4,"target 3 insA 3' of 22,insA 3' of 6 (mixed) RNA 1: CACCCGUGCAAAAUUGCAGGGGUCUAAAACGACCUGAAUAUUUCAGAUCAAA RNA 2: GGGAAUGGAUCCACAUCUACGAAUUCGUUUAUUGAUCUGAAAUAUUCAAGGUCUGCAGAUCGGAAGAGCACACGU",11.1 ± 0.85 nM
5,"target 3 insA 3' of 8,insC 3' of 7 (mixed) RNA 1: CACCCGUGCAAAAUUGCAGGGGUCUAAAACGACCUGAAUAUUUCAGAUCAAA RNA 2: GGGAAUGGAUCCACAUCUACGAAUUCGUUUUUGAUCUGAAAUAUAUCCAGGUCUGCAGAUCGGAAGAGCACACGU",67.5 ± 8 nM
6,"target 3 insU 3' of 11,insA 3' of 7 (mixed) RNA 1: CACCCGUGCAAAAUUGCAGGGGUCUAAAACGACCUGAAUAUUUCAGAUCAAA RNA 2: GGGAAUGGAUCCACAUCUACGAAUUCGUUUUUGAUCUGAAAUUAUUACAGGUCUGCAGAUCGGAAGAGCACACGU",100 ± 20.5 nM
7,"target 3 U8A,U22A (mixed) RNA 1: CACCCGUGCAAAAUUGCAGGGGUCUAAAACGACCUGAAUAUUUCAGAUCAAA RNA 2: GGGAAUGGAUCCACAUCUACGAAUUCGUUAUUGAUCUGAAAUAAUCAGGUCUGCAGAUCGGAAGAGCACACGU",110 ± 38.5 nM
8,"target 1 A1U,G17U (mixed) RNA 1: CACCCGUGCAAAAAUGCAGGGGUCUAAAACUGAGCGGAUAACCUCUCUAUGG RNA 2: GGGAAUGGAUCCACAUCUACGAAUUCGUACCAUAUAGAGGUUAUCCGCUCUCCGAGAUCGGAAGAGCACACGU",18.8 ± 1.5 nM
9,"target 1 insA 3' of 22,insA 3' of 19 (mixed) RNA 1: CACCCGUGCAAAAAUGCAGGGGUCUAAAACUGAGCGGAUAACCUCUCUAUGG RNA 2: GGGAAUGGAUCCACAUCUACGAAUUCGUACACAUAAGAGAGGUUAUCCGCUCACCGAGAUCGGAAGAGCACACGU",38 ± 4 nM
10,"target 3 insG 3' of 9,insC 3' of 4 (mixed) RNA 1: CACCCGUGCAAAAUUGCAGGGGUCUAAAACGACCUGAAUAUUUCAGAUCAAA RNA 2: GGGAAUGGAUCCACAUCUACGAAUUCGUUUUUGAUCUGAAAUAGUUCAGCGUCUGCAGAUCGGAAGAGCACACGU",~102 nM
11,"target 3 insA 3' of 21,insU 3' of 6 (mixed) RNA 1: CACCCGUGCAAAAUUGCAGGGGUCUAAAACGACCUGAAUAUUUCAGAUCAAA RNA 2: GGGAAUGGAUCCACAUCUACGAAUUCGUUUUAUGAUCUGAAAUAUUCUAGGUCUGCAGAUCGGAAGAGCACACGU",84 ± 25.5 nM
12,"target 3 insU 3' of 22,insC 3' of 2 (mixed) RNA 1: CACCCGUGCAAAAUUGCAGGGGUCUAAAACGACCUGAAUAUUUCAGAUCAAA RNA 2: GGGAAUGGAUCCACAUCUACGAAUUCGUUUUUUGAUCUGAAAUAUUCAGGUCCUGCAGAUCGGAAGAGCACACGU",76.5 ± 24.5 nM
13,"target 3 insA 3' of 21,insG 3' of 5 (mixed) RNA 1: CACCCGUGCAAAAUUGCAGGGGUCUAAAACGACCUGAAUAUUUCAGAUCAAA RNA 2: GGGAAUGGAUCCACAUCUACGAAUUCGUUUUAUGAUCUGAAAUAUUCAGGGUCUGCAGAUCGGAAGAGCACACGU",71 ± 33.5 nM
